Results taken from the supplement of paper PMC6757056.
± gives the standard deviation of the averaged measurements.

B1: library; a variant is named by its letters at N, in order (parent)
chain: GCUGUCACCGGUGCUUGGUACGUUAUAUUCAGCCGGUCUGAUGAGUCUNNNNNNAGACGAAACAGC

Tests used:
(6R,S)-folinic acid [1] = variants of: B1; assay: FACS-Seq fitted mean relative fluorescence mCherry/BFP without ligand (log10 relative fluorescence); HEK293T overexpressing SLC46A1; higher = higher reporter protein expression; conditions: without (6R,S)-folinic acid; ligand present: no
Procedure, shortened: (§1)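 Reporter cells were enriched HEK293T libraries transduced by lentivirus with mCherry behind the ribozyme switch and with an EF1α-BFP marker. Following 48 h with or without ligand, they were sorted into 6 mCherry/BFP bins, and bin genomic DNA was PCR-amplified, barcoded and MiSeq-sequenced. Fluorescence was computed as the fitted normal mean of the bin counts. The fit used log10(mCherry/BFP), with scaling to five spiked-in control ribozymes.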

(6R,S)-folinic acid [2] = variants of: B1; assay: normalized RNA/DNA level without ligand (relative to sTRSVctl = 100) (log10 (% of sTRSVctl)); HEK293T overexpressing SLC46A1; higher = less ribozyme self-cleavage, higher mRNA level; conditions: without (6R,S)-folinic acid; ligand present: no
Description: (§2)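 Hammerhead (sTRSV) ribozyme switch libraries with a ligand aptamer grafted on stem I and a randomized N4-6 loop II, cloned into the 3' UTR of mCherry and transiently transfected into HEK293T cells; RNA-Seq 72 h post transfection with ligand added 1 h before transfection; RNA read count / plasmid DNA read count normalized to the non-cleaving sTRSVctl (x100), log10; sequences with >100 DNA reads. FACS-Seq: lentiviral library sorted into 6 bins after 48 h ligand, log-normal fit mean of mCherry/BFP scaled to controls. Printed sequences are partial switch sequences.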

(6R,S)-folinic acid [3] = variants of: B1; assay: FACS-Seq fitted mean relative fluorescence mCherry/BFP with ligand (log10 relative fluorescence); HEK293T overexpressing SLC46A1; ligand concentration (+) FACS-Seq: 6 mM; higher = higher reporter protein expression; conditions: with (6R,S)-folinic acid; ligand present: yes
Procedure, shortened: as §1

(6R,S)-folinic acid [4] = variants of: B1; assay: normalized RNA/DNA level with ligand (relative to sTRSVctl = 100) (log10 (% of sTRSVctl)); HEK293T overexpressing SLC46A1; ligand concentration (+) RNA-Seq: 6 mM; higher = less ribozyme self-cleavage, higher mRNA level; conditions: with (6R,S)-folinic acid; ligand present: yes
Description: as §2

Variant	FACS-Seq fitted mean (log10) ((6R,S)-folinic acid [1])	normalized RNA/DNA level without ligand (log10) ((6R,S)-folinic acid [2])	FACS-Seq fitted mean (log10) ((6R,S)-folinic acid [3])	normalized RNA/DNA level with ligand (log10) ((6R,S)-folinic acid [4])
GCUGUCACCGGUGCUUGGUACGUUAUAUUCAGCCGGUCUGAUGAGUCUGAGUCAAGACGAAACAGC	-0.101 ± 0.0028	1.998 ± 0.011	-0.24 ± 0.16	2.01 ± 0.0086
GCUGUCACCGGUGCUUGGUACGUUAUAUUCAGCCGGUCUGAUGAGUCUGAGUCCAGACGAAACAGC	0.0836 ± 0.051	2.04 ± 0.027	0.569 ± 0.064	2.04 ± 0.03
GCUGUCACCGGUGCUUGGUACGUUAUAUUCAGCCGGUCUGAUGAGUCUUAGUAGAGACGAAACAGC	0.108 ± 0.076	1.68 ± 0.011	0.525 ± 0.14	1.93 ± 0.036
GCUGUCACCGGUGCUUGGUACGUUAUAUUCAGCCGGUCUGAUGAGUCUUAGUAUAGACGAAACAGC	0.347 ± 0.059	1.931 ± 0.0038	0.553 ± 0.11	2.006 ± 0.018
GCUGUCACCGGUGCUUGGUACGUUAUAUUCAGCCGGUCUGAUGAGUCUUAGUAAAGACGAAACAGC	0.0937 ± 0.063	1.937 ± 0.009	0.531 ± 0.11	1.995 ± 0.016
GCUGUCACCGGUGCUUGGUACGUUAUAUUCAGCCGGUCUGAUGAGUCUCAGUAAAGACGAAACAGC	0.289 ± 0.13	1.955 ± 0.0021	0.23 ± 0.14	1.99 ± 0.023
GCUGUCACCGGUGCUUGGUACGUUAUAUUCAGCCGGUCUGAUGAGUCUUAGUGGAGACGAAACAGC	-0.0676 ± 0.055	1.56 ± 0.021	0.623 ± 0.023	1.89 ± 0.046
GCUGUCACCGGUGCUUGGUACGUUAUAUUCAGCCGGUCUGAUGAGUCUUAGUGCAGACGAAACAGC	0.371 ± 0.0073	1.949 ± 0.011	0.493 ± 0.034	2 ± 0.051
GCUGUCACCGGUGCUUGGUACGUUAUAUUCAGCCGGUCUGAUGAGUCUCAGUCGAGACGAAACAGC	0.4924 ± 0.0036	2.022 ± 0.01	0.422 ± 0.19	2.037 ± 0.018
GCUGUCACCGGUGCUUGGUACGUUAUAUUCAGCCGGUCUGAUGAGUCUGAGUGCAGACGAAACAGC	0.283 ± 0.14	1.944 ± 0.0043	0.338 ± 0.15	2.03 ± 0.039
GCUGUCACCGGUGCUUGGUACGUUAUAUUCAGCCGGUCUGAUGAGUCUGAGUGUAGACGAAACAGC	0.00433 ± 0.11	1.97 ± 0.01	0.322 ± 0.027	2.04 ± 0.025
GCUGUCACCGGUGCUUGGUACGUUAUAUUCAGCCGGUCUGAUGAGUCUGAGUGGAGACGAAACAGC	0.427 ± 0.07	1.914 ± 0.0062	0.493 ± 0.18	2.01 ± 0.046
GCUGUCACCGGUGCUUGGUACGUUAUAUUCAGCCGGUCUGAUGAGUCUGAGUGAAGACGAAACAGC	0.213 ± 0.11	1.96 ± 0.023	0.443 ± 0.15	2 ± 0.043
GCUGUCACCGGUGCUUGGUACGUUAUAUUCAGCCGGUCUGAUGAGUCUGAGUAGAGACGAAACAGC	0.282 ± 0.0024	1.936 ± 0.017	0.0667 ± 0.095	1.99 ± 0.034
GCUGUCACCGGUGCUUGGUACGUUAUAUUCAGCCGGUCUGAUGAGUCUGAGUACAGACGAAACAGC	0.375 ± 0.091	1.952 ± 0.012	0.311 ± 0.16	2 ± 0.033
GCUGUCACCGGUGCUUGGUACGUUAUAUUCAGCCGGUCUGAUGAGUCUGAGUAAAGACGAAACAGC	0.434 ± 0.18	1.9346 ± 0.0017	0.44 ± 0.3	1.99 ± 0.029
GCUGUCACCGGUGCUUGGUACGUUAUAUUCAGCCGGUCUGAUGAGUCUAAGUCGAGACGAAACAGC	-0.00669 ± 0.0044	1.978 ± 0.0045	0.183 ± 0.19	2.0217 ± 0.00076
GCUGUCACCGGUGCUUGGUACGUUAUAUUCAGCCGGUCUGAUGAGUCUAAGUAGAGACGAAACAGC	0.445 ± 0.099	1.89 ± 0.021	0.443 ± 0.18	1.987 ± 0.018
GCUGUCACCGGUGCUUGGUACGUUAUAUUCAGCCGGUCUGAUGAGUCUAAGUAAAGACGAAACAGC	0.225 ± 0.044	1.94 ± 0.021	0.18 ± 0.26	2 ± 0.043
GCUGUCACCGGUGCUUGGUACGUUAUAUUCAGCCGGUCUGAUGAGUCUAAGUGUAGACGAAACAGC	0.173 ± 0.16	1.94 ± 0.015	0.597 ± 0.37	2.01 ± 0.029
GCUGUCACCGGUGCUUGGUACGUUAUAUUCAGCCGGUCUGAUGAGUCUAAGUGAAGACGAAACAGC	0.288 ± 0.021	1.952 ± 0.003	0.42 ± 0.11	2.03 ± 0.021
